Drawing on patent CN116063478A (BEIJING SHUNYUANTIAN BIOLOGICAL PRODUCTS CO LTD, dated 2023), this text covers Kd for one molecule.

This experiment addresses 重组人Bromodomain结构域结合蛋白4(BRD4,区域49-170aa)(Biovision，货号:7643-100) (human, UniProt O60885 49-170). The experiment can be described thus: BLI (Fortebio Octet), binding kinetics; format not stated. (BLI is a label-free optical method that tracks binding on a fibre tip over time.)

B1: BRD4-3F14单抗 (antibody, V domains shown)
VH: VKPGGSLKLSCAASRGWVDPYRMSWVRQTPDKRLEWVAIQITGHDFDYYPDSVKGRFTISRDQDKQTLYLQMSSLKSEDTAMYYCLGPKAVKHLELWGQGTTVTVS
VL: DLVMTQTAPSVPVTPGESVSISCRSTAWWYVWWMLWQLYWFLQRPGQSPQLLIYVYHNLASGVPDRFSGSGSGTAFTLRISRVEAEDVGVYYCWHFPRHKCSFGSGTKLEIK
Turning to B1, the Kd (commonly the free concentration of one partner at which half of the binding sites on the other are occupied at equilibrium, for simple one-to-one binding) was 1.07 nM.
